According to paper PMC6399320, “The SIAH2-NRF1 axis spatially regulates tumor microenvironment remodeling for tumor progression” (Nature Communications, 2019):

Molecular target: T1, His-NRF1 (Nuclear Respiratory Factor 1), bacterially expressed (UniProt Q16656 1-503)
T1 construct: Nuclear Respiratory Factor 1 (NRF1), cDNA cloned into pET28a; Vector pET28a; source: Escherichia coli BL21, expressed and purified
T1 sequence (looked up): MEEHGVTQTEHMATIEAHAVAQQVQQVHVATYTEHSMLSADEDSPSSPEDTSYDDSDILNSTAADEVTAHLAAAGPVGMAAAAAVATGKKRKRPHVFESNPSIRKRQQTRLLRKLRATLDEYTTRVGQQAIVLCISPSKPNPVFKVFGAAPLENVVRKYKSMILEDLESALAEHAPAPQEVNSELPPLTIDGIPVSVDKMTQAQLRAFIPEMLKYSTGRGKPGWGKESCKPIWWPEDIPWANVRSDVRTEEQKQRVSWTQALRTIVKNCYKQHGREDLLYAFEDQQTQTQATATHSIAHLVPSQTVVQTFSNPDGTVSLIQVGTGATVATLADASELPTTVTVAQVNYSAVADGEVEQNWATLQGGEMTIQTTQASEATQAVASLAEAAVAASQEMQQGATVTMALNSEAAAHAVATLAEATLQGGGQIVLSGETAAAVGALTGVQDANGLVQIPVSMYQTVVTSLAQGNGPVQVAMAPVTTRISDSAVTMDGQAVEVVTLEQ
Test: pull-down; GST pull-down in vitro with bacterially expressed His-NRF1 and GST-SIAH2
Settings: both partners purified

- binding result: binds
B1: GST-SIAH2, bacterially expressed (enzyme, UniProt O43255 1-324, looked up)
chain: MSRPSSTGPSANKPCSKQPPPQPQHTPSPAAPPAAATISAAGPGSSAVPAAAAVISGPGGGGGAGPVSPQHHELTSLFECPVCFDYVLPPILQCQAGHLVCNQCRQKLSCCPTCRGALTPSIRNLAMEKVASAVLFPCKYATTGCSLTLHHTEKPEHEDICEYRPYSCPCPGASCKWQGSLEAVMSHLMHAHKSITTLQGEDIVFLATDINLPGAVDWVMMQSCFGHHFMLVLEKQEKYEGHQQFFAIVLLIGTRKQAENFAYRLELNGNRRRLTWEATPRSIHDGVAAAIMNSDCLVFDTAIAHLFADNGNLGINVTISTCCP
notes: E3 ligase SIAH2, cDNA cloned into pGEX-4T-1; Vector pGEX-4T-1; source: Escherichia coli BL21, expressed and purified
